Two molecules from patent US20230052168A1 (ROYAL COLLEGE OF SURGEIONS IN IRELAND, published 2023) can be followed below.

Positions count from the first letter of the chain named. In names and notes the source's numbering stands.

Assay [1] concerns the target T1, protein C (zymogen) (UniProt P04070 43-461).
T1 construct: also called PC
The experiment in a line: inferred from APC generation assay on endothelial cells with E86A control. The protocol: (§1) Protein C (100 nM) and thrombin (5 nM) were added with h-sEPCR^Snoop (1 μM) or h-sEPCR-E86A^Snoop (1 μM) an sEPCR variant unable to bind to PC/APC, then incubated for 30 minutes. […] The net effect of this restriction of APC generation. Statistical analysis of experimental data was performed using one-way ANOVA and Tukey's multiple comparison post hoc analysis. ns signifies non-significant, * signifies a p value of <0.05.
(§2) Assessment of h-sEPCR^Snoop Inhibition of Protein C Activation by the Thrombin-Thrombomodulin Complex on Endothelial Cells Protein C (100 nM) and thrombin (5 nM) were added with h-sEPCR^Snoop (1 μM) or h-sEPCR-E86ASnoop (1 μM) an sEPCR variant unable to bind to PC/APC, then incubated for 30 minutes. […] The net effect of this restriction of APC generation. Statistical analysis of experimental data was performed using one-way ANOVA and Tukey's multiple comparison post hoc analysis. ns signifies non-significant, * signifies a p value of <0.05 (see FIG. 5).

The target of assay [2] is T1, protein C (zymogen). The experiment in a line: control in APC generation assay on endothelial cells (protein C 100 nM, thrombin 5 nM). The protocol:
as §1, §2

T1 sequence (P04070 43-461): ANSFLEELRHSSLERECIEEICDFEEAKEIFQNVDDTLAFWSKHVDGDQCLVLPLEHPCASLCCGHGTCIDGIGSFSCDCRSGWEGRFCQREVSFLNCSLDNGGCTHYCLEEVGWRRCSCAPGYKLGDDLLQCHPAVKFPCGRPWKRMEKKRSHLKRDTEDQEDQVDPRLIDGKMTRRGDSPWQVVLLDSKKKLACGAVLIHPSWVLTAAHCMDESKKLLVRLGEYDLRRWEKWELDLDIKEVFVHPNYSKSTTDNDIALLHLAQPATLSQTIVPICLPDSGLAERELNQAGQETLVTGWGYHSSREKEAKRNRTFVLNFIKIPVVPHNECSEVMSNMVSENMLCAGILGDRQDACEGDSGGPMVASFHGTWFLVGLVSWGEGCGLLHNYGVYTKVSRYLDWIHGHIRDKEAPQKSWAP

B1: h-sEPCR^Snoop (recombinant human soluble endothelial cell protein C receptor with GSGGSG linker, SnoopTag and C-terminal His-tag) (receptor)
chain: SQDASDGLQRLHMLQISYFRDPYHVWYQGNASLGGHLTHVLEGPDTNTTIIQLQPLQEPESWARTQSGLQSYLLQFHGLVRLVHQERTLAFPLTIRCFLGCELPPEGSRAHVFFEVAVNGSSFVSFRPERALWQADTQVTSGVVTFTLQQLNAYNRTRYELREFLEDTCVQYVQKHISAENTKGSQTSRSYTSGSGGSGKLGDIEFIKVNKHHHHHH
notes: Expressed in HEK293 cells, purified on nickel; The printed entry still carries the N-terminal signal peptide; also called human sEPCR^Snoop; r-sEPCR
Consider B1, for which the binding result with protein C (zymogen) [1] is given as “binds”.

B2: h-sEPCR-E86A^Snoop (receptor)
chain: B1 chain with E86A
As to B2, in the assay with protein C (zymogen) [2], the binding result is recorded as “no binding (tested: 1 µM)”.
